# Results: patent US20130209454A1
# Positions count from the first letter of the chain named. Names and notes keep the numbering of the source. Read-outs that look alike come from different tables or passages of the source.
# B1: NIH45-46^G54Y IgG (antibody, name in Kabat numbering, V domains shown)
# VH: QVRLSQSGGQMKKPGESMRLSCRASGYEFLNCPINWIRLAPGRRPEWMGWLKPRYGAVNYARKFQGRVTMTRDVYSDTAFLELRSLTSDDTAVYFCTRGKYCTARDYYNWDFEHWGRGAPVTVSS
# VL: EIVLTQSPATLSLSPGETAIISCRTSQSGSLAWYQQRPGQAPRLVIYSGSTRAAGIPDRFSGSRWGADYNLSISNLESGDFGVYYCQQYEFFGQGTKVQVDI
# B2: NIH45-46^G54W(HC), S28Y(LC) (antibody, V domains shown)
# VH: B1 VH with Y55W
# VL: B1 VL with S28Y
# B3: NIH45-46^G54W(HC) S28Y(LC) (antibody, V domains shown)
# VH: B1 VH with Y55W
# VL: B1 VL with S28Y
# B4: NIH45-46^G54W IgG (antibody, name in Kabat numbering, V domains shown)
# VH: B1 VH with Y55W
# VL: B1 VL
# B5: NIH45-46^G54F IgG (antibody, name in Kabat numbering, V domains shown)
# VH: B1 VH with Y55F
# VL: B1 VL
# B6: NIH45-46^G54W (antibody, V domains shown)
# VH: B1 VH with Y55W
# VL: B1 VL
# Key:
# Assay in all cases: cell-based or functional assay
# [1] = target: HIV-1 Env of strain TRO.11 (HIV-1)
# [2] = target: HIV-1 Env of strain AC10.0.29 (HIV-1)
# [3] = target: HIV-1 Env of strain CAP210.2.00.E8 (HIV-1)
# [4] = target: HIV-1 Env of strain CAP45.2.00.G3 (HIV-1)
# [5] = target: HIV-1 Env of strain SC422661.8 (HIV-1)
# [6] = target: HIV-1 strain CNE53 envelope (gp120) (HIV-1)
# [7] = target: HIV-1 strain C1080.c03 envelope (gp120) (HIV-1)
# [8] = target: HIV-1 strain CNE21 envelope (gp120) (HIV-1)
# [9] = target: HIV-1 Env of strain 1056_10_TA11_1826 (HIV-1)
# [10] = target: HIV-1 Env of strain 0815.v3.c3 (HIV-1)
# [11] = target: HIV-1 strain C3347.c11 envelope (gp120) (HIV-1)
# [12] = target: HIV-1 Env of strain AC10.0.29 (HIV-1); remark: listed apart in the source
# [13] = target: HIV-1 Env of strain CNE21 (HIV-1)
# [14] = target: HIV-1 strain WITO4160.33 envelope (gp120) (HIV-1)
# [15] = target: HIV-1 strain Q259.d2.17 envelope (gp120) (HIV-1)
# [16] = target: HIV-1 strain ZM135M.PL10a envelope (gp120) (HIV-1)
# [17] = target: HIV-1 Env of strain PVO.4 (HIV-1)
# [18] = target: HIV-1 strain CNE58 envelope (gp120) (HIV-1)
# [19] = target: HIV-1 strain 6545.v4.c1 envelope (gp120) (HIV-1)
# [20] = target: HIV-1 Env of strain C4118.c09 (HIV-1)
# [21] = target: HIV-1 Env of strain Ce1086_B2 (HIV-1)
# [22] = target: HIV-1 Env of strain 263-8 (HIV-1)
# [23] = target: HIV-1 Env of strain 191821_E6_1 (HIV-1)
# [24] = target: HIV-1 Env of strain 6545.v4.c1 (HIV-1)
# [25] = target: Env of HIV-1 strain HIV-16055-2.3 (HIV-1)
# [26] = target: Env of HIV-1 strain 249M B10 (HIV-1)
# [27] = target: Env of HIV-1 strain Q769.d22 (HIV-1)
# [28] = target: Env of HIV-1 strain 0815.v3.c3 (HIV-1)
# [29] = target: Env of HIV-1 strain CAP45.2.00.G3 (HIV-1)
# [30] = target: Env of HIV-1 strain BJOX009000.02.4 (HIV-1)
# [31] = target: Env of HIV-1 strain ZM233M.PB6 (HIV-1)
# [32] = target: Env of HIV-1 strain Ce2060_G9 (HIV-1)
# [33] = target: Env of HIV-1 strain 89-F1_2_25 (HIV-1)
# [34] = target: Env of HIV-1 strain SC05_8C11_2344 (HIV-1)
# [35] = target: Env of HIV-1 strain CNE52 (HIV-1)
# [36] = target: Env of HIV-1 strain ZM214M.PL15 (HIV-1)
# [37] = target: Env of HIV-1 strain X2088_c9 (HIV-1)
# [38] = target: Env of HIV-1 strain 3365.v2.c2 (HIV-1)
# [39] = target: Env of HIV-1 strain 6545.v4.c1 (HIV-1)
# [40] = target: Env of HIV-1 strain 9004SS_A3_4 (HIV-1)
# [41] = target: Env of HIV-1 strain 246F C1G (HIV-1)
# [42] = target: Env of HIV-1 strain 211-9 (HIV-1)
# [43] = target: Env of HIV-1 strain 6041.v3.c23 (HIV-1)
# [44] = target: Env of HIV-1 strain HIV-0013095-2.11 (HIV-1)
# [45] = target: Env of HIV-1 strain T257-31 (HIV-1)
# [46] = target: Env of HIV-1 strain 6952.v1.c20 (HIV-1)
# [47] = target: Env of HIV-1 strain CNE8 (HIV-1)
# [48] = target: Env of HIV-1 strain C4118.c09 (HIV-1)
# [49] = target: Env of HIV-1 strain CNE19 (HIV-1)
# [50] = target: Env of HIV-1 strain 1012_11_TC21_3257 (HIV-1)
# [51] = target: Env of HIV-1 strain T255-34 (HIV-1)
binder,measurement,setting,value
B1,neutralization IC50,[1],0.1 µg/mL
same,neutralization IC50,[2],0.4 µg/mL
same,neutralization IC50,[3],> 50 µg/mL
same,neutralization IC50,[4],45 µg/mL
same,neutralization IC50,[5],0.06 µg/mL
same,neutralization IC80,[6],0.027 µg/mL
same,neutralization IC80,[7],1.83 µg/mL
same,neutralization IC80,[8],0.29 µg/mL
same,neutralization IC50,[9],0.044 µg/mL
same,neutralization IC50,[10],< 1 ng/mL
same,neutralization IC80,[11],0.052 µg/mL
same,neutralization IC50,[12],0.19 µg/mL
same,neutralization IC50,[13],0.07 µg/mL
same,neutralization IC80,[14],0.09 µg/mL
same,neutralization IC80,[15],0.034 µg/mL
same,neutralization IC80,[16],0.3 µg/mL
same,neutralization IC50,[17],0.06 µg/mL
same,neutralization IC80,[18],0.11 µg/mL
same,neutralization IC80,[19],> 50 µg/mL
B2,"IC50, pseudovirus neutralization",[9],0.057 µg/mL
same,"IC50, pseudovirus neutralization",[10],1 ng/mL
same,"IC50, pseudovirus neutralization",[12],0.118 µg/mL
same,"IC50, pseudovirus neutralization",[13],0.001 µg/mL
same,"IC50, pseudovirus neutralization",[20],0.011 µg/mL
same,"IC50, pseudovirus neutralization",[21],0.004 µg/mL
same,"IC50, pseudovirus neutralization",[22],18 ng/mL
same,"IC50, pseudovirus neutralization",[17],0.014 µg/mL
same,"IC50, pseudovirus neutralization",[23],0.05 µg/mL
same,"IC50, pseudovirus neutralization",[24],15.2 µg/mL
B3,IC80,[25],0.017 µg/mL
same,IC80,[26],0.017 µg/mL
same,IC80,[27],0.017 µg/mL
same,IC80,[28],4 ng/mL
same,IC80,[29],0.089 µg/mL
same,IC80,[30],0.621 µg/mL
same,IC80,[31],0.083 µg/mL
same,IC80,[32],0.062 µg/mL
same,IC80,[33],> 50 µg/mL
same,IC80,[34],0.219 µg/mL
same,IC80,[35],0.028 µg/mL
same,IC80,[36],0.258 µg/mL
same,IC80,[37],> 50 µg/mL
same,IC80,[38],0.049 µg/mL
same,IC80,[39],> 50 µg/mL
same,IC80,[40],0.138 µg/mL
same,IC80,[41],0.14 µg/mL
same,IC80,[42],0.898 µg/mL
same,IC80,[43],3 ng/mL
same,IC80,[44],0.017 µg/mL
same,IC80,[45],0.471 µg/mL
same,IC80,[46],0.042 µg/mL
same,IC80,[47],0.156 µg/mL
same,IC80,[48],0.058 µg/mL
same,IC80,[49],0.102 µg/mL
same,IC80,[50],8 ng/mL
same,IC80,[51],0.105 µg/mL
B4,neutralization IC50,[1],0.09 µg/mL
same,neutralization IC50,[2],0.2 µg/mL
same,neutralization IC50,[3],41 µg/mL
same,neutralization IC50,[4],6.6 µg/mL
same,neutralization IC50,[5],0.03 µg/mL
same,neutralization IC80,[6],0.005 µg/mL
same,neutralization IC80,[7],0.91 µg/mL
same,neutralization IC80,[8],0.16 µg/mL
same,neutralization IC50,[9],0.024 µg/mL
same,neutralization IC50,[10],< 1 ng/mL
same,neutralization IC80,[11],0.028 µg/mL
same,neutralization IC50,[12],0.13 µg/mL
same,neutralization IC50,[13],0.03 µg/mL
same,neutralization IC80,[14],0.04 µg/mL
same,neutralization IC80,[15],0.014 µg/mL
same,neutralization IC80,[16],0.16 µg/mL
same,neutralization IC50,[17],0.05 µg/mL
same,neutralization IC80,[18],0.05 µg/mL
same,neutralization IC80,[19],> 50 µg/mL
B5,neutralization IC50,[1],0.08 µg/mL
same,neutralization IC50,[2],0.3 µg/mL
same,neutralization IC50,[3],> 50 µg/mL
same,neutralization IC50,[4],> 50 µg/mL
same,neutralization IC50,[5],0.02 µg/mL
same,neutralization IC80,[6],0.024 µg/mL
same,neutralization IC80,[7],2.26 µg/mL
same,neutralization IC80,[8],0.66 µg/mL
same,neutralization IC50,[9],0.064 µg/mL
same,neutralization IC50,[10],< 1 ng/mL
same,neutralization IC80,[11],0.059 µg/mL
same,neutralization IC50,[12],0.24 µg/mL
same,neutralization IC50,[13],0.12 µg/mL
same,neutralization IC80,[14],0.14 µg/mL
same,neutralization IC80,[15],0.036 µg/mL
same,neutralization IC80,[16],0.43 µg/mL
same,neutralization IC50,[17],0.07 µg/mL
same,neutralization IC80,[18],0.11 µg/mL
same,neutralization IC80,[19],> 50 µg/mL
B6,IC80,[25],0.024 µg/mL
same,"IC50, pseudovirus neutralization",[9],0.024 µg/mL
same,IC80,[26],0.019 µg/mL
same,"IC50, pseudovirus neutralization",[10],1 ng/mL
same,IC80,[27],0.009 µg/mL
same,IC80,[28],3 ng/mL
same,"IC50, pseudovirus neutralization",[12],0.13 µg/mL
same,IC80,[29],> 50 µg/mL
same,IC80,[30],0.564 µg/mL
same,IC80,[31],0.11 µg/mL
same,IC80,[32],0.042 µg/mL
same,IC80,[33],> 50 µg/mL
same,"IC50, pseudovirus neutralization",[13],0.03 µg/mL
same,IC80,[34],0.2 µg/mL
same,"IC50, pseudovirus neutralization",[20],0.01 µg/mL
same,IC80,[35],0.052 µg/mL
same,IC80,[36],0.15 µg/mL
same,IC80,[37],> 50 µg/mL
same,IC80,[38],0.056 µg/mL
same,IC80,[39],> 50 µg/mL
same,IC80,[40],0.28 µg/mL
same,IC80,[41],2.45 µg/mL
same,"IC50, pseudovirus neutralization",[21],0.019 µg/mL
same,IC80,[42],> 50 µg/mL
same,"IC50, pseudovirus neutralization",[22],1 ng/mL
same,"IC50, pseudovirus neutralization",[17],0.05 µg/mL
same,"IC50, pseudovirus neutralization",[23],0.013 µg/mL
same,IC80,[43],1 ng/mL
same,IC80,[44],0.027 µg/mL
same,IC80,[45],0.45 µg/mL
same,IC80,[46],0.01 µg/mL
same,IC80,[47],0.24 µg/mL
same,IC80,[48],0.087 µg/mL
same,"IC50, pseudovirus neutralization",[24],18.9 µg/mL
same,IC80,[49],0.028 µg/mL
same,IC80,[50],3 ng/mL
same,IC80,[51],0.099 µg/mL
